Measurements as given in publication PMC12561415, “ACSS2/AATF Drives Soluble FasL‐Mediated CD8^+ T Cell Apoptosis in Pancreatic Neuroendocrine Tumors” (Advanced Science, 2025).

Biological target: T1, Recombinant human ACSS2 (human, UniProt Q9NR19 1-701)
T1 construct: Recombinant human ACSS2, immobilised on a CM5 chip for SPR
Test: SPR; Biacore 8K, 25 °C, HBS-EP running buffer; ACSS2 amine-coupled to a CM5 chip (5 µg/mL in 10 mM sodium acetate pH 5.5); AATF injected at 12.5-400 nM; multi-cycle, 120 s association, 120 s dissociation, 30 µL/min
Conditions: both partners purified

T1 sequence (Q9NR19 whole entry): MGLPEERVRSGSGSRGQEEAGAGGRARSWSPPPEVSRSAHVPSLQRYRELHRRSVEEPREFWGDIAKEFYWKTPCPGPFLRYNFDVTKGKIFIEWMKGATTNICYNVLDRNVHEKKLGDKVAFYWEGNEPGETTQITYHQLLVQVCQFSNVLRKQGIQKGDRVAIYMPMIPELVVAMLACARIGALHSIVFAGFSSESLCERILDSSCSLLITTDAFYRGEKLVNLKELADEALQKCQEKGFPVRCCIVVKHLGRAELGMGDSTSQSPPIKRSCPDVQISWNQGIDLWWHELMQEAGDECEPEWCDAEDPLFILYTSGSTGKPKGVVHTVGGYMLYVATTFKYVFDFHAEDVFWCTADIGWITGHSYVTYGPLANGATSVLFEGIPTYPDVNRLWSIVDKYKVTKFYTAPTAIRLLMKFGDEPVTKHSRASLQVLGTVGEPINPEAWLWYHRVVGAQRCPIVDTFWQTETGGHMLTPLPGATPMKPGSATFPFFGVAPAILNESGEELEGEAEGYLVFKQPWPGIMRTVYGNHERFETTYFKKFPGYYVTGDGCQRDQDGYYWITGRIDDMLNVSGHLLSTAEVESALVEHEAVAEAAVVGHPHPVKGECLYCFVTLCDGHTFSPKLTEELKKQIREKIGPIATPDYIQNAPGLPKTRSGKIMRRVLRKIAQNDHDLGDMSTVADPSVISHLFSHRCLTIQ

Kd: 0.0333 ± 0.0017 µM
B1: Recombinant human AATF (natural protein, UniProt Q9NY61 1-560, looked up)
chain: MAGPQPLALQLEQLLNPRPSEADPEADPEEATAARVIDRFDEGEDGEGDFLVVGSIRKLASASLLDTDKRYCGKTTSRKAWNEDHWEQTLPGSSDEEISDEEGSGDEDSEGLGLEEYDEDDLGAAEEQECGDHRESKKSRSHSAKTPGFSVQSISDFEKFTKGMDDLGSSEEEEDEESGMEEGDDAEDSQGESEEDRAGDRNSEDDGVVMTFSSVKVSEEVEKGRAVKNQIALWDQLLEGRIKLQKALLTTNQLPQPDVFPLFKDKGGPEFSSALKNSHKALKALLRSLVGLQEELLFQYPDTRYLVDGTKPNAGSEEISSEDDELVEEKKQQRRRVPAKRKLEMEDYPSFMAKRFADFTVYRNRTLQKWHDKTKLASGKLGKGFGAFERSILTQIDHILMDKERLLRRTQTKRSVYRVLGKPEPAAQPVPESLPGEPEILPQAPANAHLKDLDEEIFDDDDFYHQLLRELIERKTSSLDPNDQVAMGRQWLAIQKLRSKIHKKVDRKASKGRKLRFHVLSKLLSFMAPIDHTTMNDDARTELYRSLFGQLHPPDEGHGD
notes: Recombinant human AATF, the analyte in SPR; also called Che-1
